Assay [1] addresses human IgE (Calbiochem) (human). Description: SPR. As to conditions: Fc fusion.
The next assay addresses IgE_(TRAP) (human) (UniProt P12319). Briefly: SPR; ProteOn XPR36, GLC chip; 500 RU of IgE_(TRAP) immobilised in acetate buffer pH 4.0 (850 RU of omalizumab at pH 5.5); human IgE flowed over; PBS with 0.005% Tween-20, 30 μL/min.

human IgE (Calbiochem) (natural protein), sequence (P01854 whole entry): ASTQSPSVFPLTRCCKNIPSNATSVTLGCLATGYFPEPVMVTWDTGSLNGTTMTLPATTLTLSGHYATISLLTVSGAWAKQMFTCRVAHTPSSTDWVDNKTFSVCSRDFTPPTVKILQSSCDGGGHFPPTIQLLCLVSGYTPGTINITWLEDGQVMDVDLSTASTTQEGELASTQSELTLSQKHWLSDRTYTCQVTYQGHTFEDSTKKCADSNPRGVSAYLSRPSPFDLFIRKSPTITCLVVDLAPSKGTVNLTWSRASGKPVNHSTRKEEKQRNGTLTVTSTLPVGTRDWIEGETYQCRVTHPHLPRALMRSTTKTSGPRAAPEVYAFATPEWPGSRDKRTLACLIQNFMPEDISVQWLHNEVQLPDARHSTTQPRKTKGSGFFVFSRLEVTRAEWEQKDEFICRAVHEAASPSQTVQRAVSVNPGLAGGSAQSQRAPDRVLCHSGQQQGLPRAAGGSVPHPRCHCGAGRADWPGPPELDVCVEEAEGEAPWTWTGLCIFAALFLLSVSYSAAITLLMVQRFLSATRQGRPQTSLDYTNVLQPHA
human IgE (Calbiochem) (human), sequence (P01854 whole entry, the tested form may be a part): as the sequence (P01854 whole entry) above

In assay [1], “IgE_(TRAP) (from UniProt P12319 25-205; P01880 133-170; P01861 121-327)” returned a Kd of 215 pM and a koff of 5.69e-05 s⁻¹.
Turning to “human IgE (Calbiochem) (natural protein)”, in the assay with IgE_(TRAP) (human), the fold higher binding affinity than omalizumab came to 69 fold, the fold lower association rate constant (Ka) than omalizumab is 1.5 fold and the fold lower dissociation rate constant (Kd) than omalizumab is 105 fold.

The record behind these values is PMC9515155.
